# Measurements reported in US20030154500, “Nucleic acid transfer vector for the introduction of nucleic acid into the DNA of a cell” (Regents of the University of Minnesota, published 2003).
# T1: SB transposase N123 (N-terminal DNA-binding domain, residues 1-123) (synthetic (salmonid consensus))
# T1 chain: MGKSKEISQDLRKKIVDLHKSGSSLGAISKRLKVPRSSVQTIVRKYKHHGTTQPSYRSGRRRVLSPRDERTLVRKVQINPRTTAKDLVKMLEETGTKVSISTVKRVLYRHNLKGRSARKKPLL
# B1: salmonid outer transposase-binding site (dsDNA)
# DNA 1: GTTGAAGTCGGAAGTTTACATACACTTAGG
# DNA 2: CCTAAGTGTATGTAAACTTCCGACTTCAAC
# B2: salmonid internal transposase-binding site (dsDNA)
# DNA 1: CCAGTGGGTCAGAAGTTTACATACACTAAG
# DNA 2: CTTAGTGTATGTAAACTTCTGACCCACTGG
# Biological target: T1, SB transposase N123 (N-terminal …)
# Assay: footprint; DNase I, 30-bp protected region within left IR probe
# Details: tags: C-terminal His tag (pET21a)
# Experimental: In addition to the NLS function, N123 also contains the specific DNA-binding domain of SB, as tested in a mobility-shift assay (FIG. 3B). A 300 bp EcoRI/HindIII fragment of pT comprising the left inverted repeat of the element was end-labeled using [α³²P]dCTP and Klenow. Nucleoprotein complexes were formed in 20 mM HEPES (pH 7.5), 0.1 mM EDTA, 0.1 mg/ml BSA, 150 mM NaCl, 1 mM DTT in a total volume of 10 μl. Reactions contained 100 pg labeled probe, 2 μg poly[dI][dC] and 1.5 μl N123. After 15 min incubation on ice, 5 μl of loading dye containing 50% glycerol and bromophenol blue was added and the samples loaded onto a 5% polyacrylamide gel (Ausubel). DNaseI footprinting was done using a kit from BRL according to the recommendations of the manufacturer. […]
# The number of the deoxyribonucleoprotein complexes detected by the mobility-shift assay at increasingly higher N123 concentrations indicated two protein molecules bound per IR (FIG. 3B, right panel), consistent with either two binding sites for transposase within the IR or a transposase dimer bound to a single site. Transposase-binding sites were further analyzed and mapped in a DNasel footprinting experiment. […]
row,Binder,binding result
1,B1,binds
2,B2,binds
